The values that follow come from PMC4569318 (Molecular Biology of the Cell, 2015).

Experiment [1] deals with T1, Sro7 (wild type, full length) (S. cerevisiae, UniProt Q12038 1-1033).
T1 sequence: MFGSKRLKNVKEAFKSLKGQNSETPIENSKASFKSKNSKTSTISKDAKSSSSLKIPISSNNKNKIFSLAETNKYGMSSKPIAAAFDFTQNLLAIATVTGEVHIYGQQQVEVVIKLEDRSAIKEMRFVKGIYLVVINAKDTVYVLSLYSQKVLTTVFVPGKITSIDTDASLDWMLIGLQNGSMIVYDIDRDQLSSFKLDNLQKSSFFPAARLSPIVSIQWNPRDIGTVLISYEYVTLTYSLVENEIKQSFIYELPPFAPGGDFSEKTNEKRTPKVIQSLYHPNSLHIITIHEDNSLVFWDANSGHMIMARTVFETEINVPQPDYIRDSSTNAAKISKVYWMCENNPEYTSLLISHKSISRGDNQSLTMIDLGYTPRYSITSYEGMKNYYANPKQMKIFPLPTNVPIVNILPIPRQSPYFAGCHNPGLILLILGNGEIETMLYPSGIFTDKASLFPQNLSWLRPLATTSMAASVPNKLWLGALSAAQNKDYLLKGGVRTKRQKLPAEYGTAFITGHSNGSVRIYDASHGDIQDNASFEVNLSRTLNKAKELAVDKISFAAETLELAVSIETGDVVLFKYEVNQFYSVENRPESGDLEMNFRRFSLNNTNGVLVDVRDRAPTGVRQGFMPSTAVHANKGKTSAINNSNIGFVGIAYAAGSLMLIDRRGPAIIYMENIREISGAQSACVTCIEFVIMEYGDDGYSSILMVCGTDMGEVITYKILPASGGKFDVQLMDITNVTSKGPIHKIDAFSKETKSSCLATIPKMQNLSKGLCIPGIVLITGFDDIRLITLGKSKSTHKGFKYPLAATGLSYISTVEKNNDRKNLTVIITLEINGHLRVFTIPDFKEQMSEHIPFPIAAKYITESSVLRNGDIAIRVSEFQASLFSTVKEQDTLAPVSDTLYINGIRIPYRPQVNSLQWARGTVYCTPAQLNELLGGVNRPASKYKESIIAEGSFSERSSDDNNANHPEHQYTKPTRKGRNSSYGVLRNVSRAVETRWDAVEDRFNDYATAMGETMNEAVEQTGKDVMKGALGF
The experiment can be described thus: pull-down.

Experiment [2] has as its target T2, Sro7-D361K (S. cerevisiae, UniProt Q12038 1-1033, D361K).
T2 sequence: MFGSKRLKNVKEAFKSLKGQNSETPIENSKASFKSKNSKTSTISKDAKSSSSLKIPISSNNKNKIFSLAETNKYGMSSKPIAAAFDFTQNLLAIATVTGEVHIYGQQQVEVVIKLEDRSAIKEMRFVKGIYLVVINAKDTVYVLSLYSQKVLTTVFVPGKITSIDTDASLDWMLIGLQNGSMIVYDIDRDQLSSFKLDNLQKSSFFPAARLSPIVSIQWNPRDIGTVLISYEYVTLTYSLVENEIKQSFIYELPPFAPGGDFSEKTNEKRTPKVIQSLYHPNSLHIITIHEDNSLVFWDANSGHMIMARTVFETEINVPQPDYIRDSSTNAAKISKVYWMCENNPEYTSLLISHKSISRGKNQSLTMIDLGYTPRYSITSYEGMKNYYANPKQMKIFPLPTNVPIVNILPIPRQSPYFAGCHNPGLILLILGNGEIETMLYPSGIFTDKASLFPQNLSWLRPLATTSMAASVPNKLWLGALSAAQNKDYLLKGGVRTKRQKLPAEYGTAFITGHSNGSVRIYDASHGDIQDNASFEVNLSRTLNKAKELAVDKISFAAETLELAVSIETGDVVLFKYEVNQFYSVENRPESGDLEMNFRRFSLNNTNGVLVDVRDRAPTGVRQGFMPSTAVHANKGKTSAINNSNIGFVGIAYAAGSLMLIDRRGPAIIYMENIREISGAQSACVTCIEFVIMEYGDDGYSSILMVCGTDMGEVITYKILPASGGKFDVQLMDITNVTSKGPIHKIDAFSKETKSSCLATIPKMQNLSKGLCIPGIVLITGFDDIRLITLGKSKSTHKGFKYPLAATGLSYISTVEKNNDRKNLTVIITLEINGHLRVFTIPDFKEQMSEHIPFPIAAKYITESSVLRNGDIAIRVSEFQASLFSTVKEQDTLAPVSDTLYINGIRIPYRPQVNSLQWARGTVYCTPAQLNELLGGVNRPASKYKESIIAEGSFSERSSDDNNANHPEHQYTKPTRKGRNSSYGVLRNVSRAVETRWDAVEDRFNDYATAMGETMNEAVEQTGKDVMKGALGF
The experiment is described as follows: pull-down.

B1: GST-Sec4 (wild type) (natural protein)
chain: MSGLRTVSASSGNGKSYDSIMKILLIGDSGVGKSCLLVRFVEDKFNPSFITTIGIDFKIKTVDINGKKVKLQLWDTAGQERFRTITTAYYRGAMGIILVYDVTDERTFTNIKQWFKTVNEHANDEAQLLLVGNKSDMETRVVTADQGEALAKELGIPFIESSAKNDDNVNEIFFTLAKLIQEKIDSNKLVGVGNGKEGNISINSGSGNSSKSNCC
B1: the binding result in experiment [1] and in experiment [2] was “binds” throughout.

B2: GST-Sec9 (full length) (natural protein)
chain: MGLKKFFKIKPPEEATPEQNKDTLMELGISVKNPSKKRKEKFAAYGKFANDKAEDKVYAPPGYEQYARPQDELEDLNASPLDANANEATAGSNRGSSGTQDLGNGAESNSMQDPYAIENDDYRYDDDPYARFQANKSNGRGSVNAAPYGDYGGGYNGTSLNSYNNDGPYSNQNTSNSWVNANGRNSLNHSNSTLNVGPSRQTRQPPVSTSTNSLSLDQRSPLANPMQEKRNPYADMNSYGGAYDSNTNRSSGTRQGSSKNANPYASMANDSYSNGNLNRSANPYSSRSVRQPQSQQAPMTYTPSFIASDEAARNSEVDLNEEPRTGEFDFEEVYADKSAENRAALDEPDLNAVMTNEDSIDLNASEVDHSSRQQQQQQWFMDEQQQQQQHFNATNNQYGDQRGYKTFEEIQKEEEARQQQEEDEAVDEIKQEIKFTKQSSVASTRNTLKMAQDAERAGMNTLGMLGHQSEQLNNVEGNLDLMKVQNKVADEKVAELKKLNRSILAVHVSNPFNSKRRRREREEQLKNRKIEEKLMREQTSQQLSQSTQRIEGAMNANNNISEVRERYQRKNVLEKAKRYQFENDEEDDEMELEIDRNLDQIQQVSNRLKKMALTTGKELDSQQKRLNNIEESTDDLDINLHMNTNRLAGIR
B2: the binding result in experiment [1] was “binds”.
